Experimental findings from publication doi:10.1101/2024.05.01.590489 (bioRxiv, 2024) are described below.

This experiment addresses AAV9 capsid (adeno-associated virus serotype 9 (AAV9), UniProt Q6JC40). Kind of experiment: cryo-EM structure.

B1: Fab3-4 (Fab, V domains shown)
VH: AVESGGGLVKPGGPLRLSCAASGFSLSDNYMTWIRQAPGKGLEWVSYISSSGSFINYADSVKGRFTISRDNAKNSLYLQMNSLRAEDTAVYYCARVLSSGGLTTSWRALWYFDVWGRGTLVTVS
VL: TVVTQEPSFSVSPGGTVTLTCGLTSGSVSTSYYPSWYQQTPGQTPRTLIYSTNIRSSGVPDRFSGSILGNKAALTITGAQADDECDYYCVLYMGSGIWVFGGGTKLTVL
In the case of B1, the binding result is “binds”.

B2: Fab3-5 (Fab, V domains shown)
VH: EVQLVESGGGLVQPGGSLRLSCAASGFTFSNYGMNWVRQAPGKGLEWVSYISSGGTIYYADSVKGRFTISRDNAKNSVYLQMNSLRAEDTAVYYCARDPAYCGDDCYTIPAHYFDYWGQGTPVTVS
VL: DIQMTQSPSSLSASVGDRVTITCRTSQSISRYLNWYQQKPGKAPKLLIYAASSLQSGVPSRFTGSGSGTDFTLTISSLQPEDFATYYCQQSYSIPPVTFGQGTRVD
Turning to B2, the binding result was “binds”.

B3: Fab3-1 (Fab, V domains shown)
VH: EVQLLESGGGLVQPGGSLRLSCEASGFTFSRYPMNWVRQAPGKGLEWVSHISASGGTTYYADTVKGRFSISRDNSKNTLYLEMNSLRAEDTAIYFCAKDYPPDEVTMIVVGMPYFDSWGLGTLVSVSS
VL: not shown
Take B3: the binding result is recorded as “binds”.

B4: Fab2-1 (Fab, V domains shown)
VH: EVQLLESGGGLVQPGKSLRLSCAASGFSFSNYAMSWVRQAPGKGLEWVSGISGSGGSTNYAESVRGRFTISRDNSKNTLYLEMNSLRVEDTAVYYCAKGMSYYDRSGYFWAKYHYGMDVWGQGITVTVSS
VL: not shown
As to B4, the binding result is “binds”.

B5: Fab2-3 (Fab, V domains shown)
VH: VQLVESGGGLVKPGGSLRLSCATSGFTFSDYYMSWIRQAPGKGLEWVSYISSSGSTIYYADSVKGRFTMSRDNAKNSLFLRMNSLRAEDTAVYYCARDQITVDREVIRAHYYYGMDVWGQGTTVTVS
VL: DIQMTQSPSSVSASVGDRVTITCRASQGINSYLAWYQQKPGKAPKLLIYAASSLESGVPSRFSGSGSGTDFTLTISSLQPEDFATYYCQQANSFPLTFGGGTKVDI
Regarding B5, the binding result is on record as “binds”.

B6: Fab1-3 (Fab, V domains shown)
VH: VQLVESGGGVVQPGRSLRLSCAASGFSFSSFVFHWVRQAPGKGLEWVAVISYDGSNKNYADSVKGRFTISRDNSKNTLFLQMNSLSADDTAVYYCARGAICSSTTCYLGDSYYFYGMDVWGQGTTVTVSS
VL: LTQPPSVSGAPGQRVTISCTGSRSNIGAGYDVHWYQQLPGTAPKLLIYGNSNRPSGVPDRFSGSKSGTSASLAITGLQTDDEADYYCQSYDSSLSGSVFGGGTKLTVL
B6: the binding result is “binds”.

B7: Fab3-3 (Fab, V domains shown)
VH: QVQLQESGPGLVKSSETLSLTCTVSGESISSSSHYWGWIRQPPGKGLEFLGNVYYLGSTYYNPSLESRVTILLDTSKNQFSLKVNSVTVADTAVYYCARHGAGSYSGLFFDYWGQGARVIVSS
VL: DIQMTQSPSFVSASVGDRVNITCRASQGINSWLAWYQQKPGKAPKLLIYSASSLQSGVPSRFSGSGSGTDFTLTISTLQPEDFATYYCQQANSFPYTFGQGTKVD
As to B7, the binding result was “binds”.

B8: Fab3-7 (Fab, V domains shown)
VH: QVQLQESGPGLVKPSETLSLTCTVSGGSISNYYWNWIRQPPGKGLEWIGYVHYSGSTNYNPSLKSRVSVSVDTSKNQFSLNLGSVTAADTAVYYCARQSRSYYNEVITDPKYNFDYWGQGTLVTVSS
VL: QSALTQPASVSGSPGQSITISCTGTSSDVGGYDYVSWYQQHPGKAPKLMIYDVSNRPSGVSNRFSGSKSGNTASLTISGLQAEDEADYYCSSYTSISTLVFGGGTKLTVL
For B8, the binding result is “binds”.

B9: Fab2-5 (Fab, V domains shown)
VH: EVQLVESGGGLVKPGGSPRLSCAASGFNFGSYSMNWVRQAPGKGLEWVSSISSSSSYIYYADSVKGRFTISRDNAKHSLYLQVNSLRAEDTAVYYCARDPTTYGYNSAWDKKGWYFDLWGRGTLLTVS
VL: VLTQPPSVSAAPGQMVTISCSGSSSNIGNDYISWYQQLPGTAPKLLIYDNNERPSGIPDRFSGSKSGTSATLGITGVQTGDEADYYCGTWDSSLSAWVFGEGTKLTVV
Turning to B9, the binding result was “binds”.

B10: Fab3-2 (Fab, V domains shown)
VH: EVQLLESGGGLVQPGGSLRLSCAASGFTFSNYAMSWVRQAPGKGLEWVSLISGSGGSIDYADSVKGRFTISRDNSKNTLYLQMDSLRAEDTAVYYCSKDPIYYDLSGYYAGRIYYFDYWGQGTLVTVSS
VL: EIVMTQSPATLSVSPGDTATLSCRASHSVSRDLAWYQQKPGQAPRLLIYDASTRATGIPARFSGSGSGTEFTLTISSLQSEDFAVYYCQQYINWVTFGPGTKVDIE
For the molecule B10, the binding result is “binds”.

B11: Fab1-1 (Fab, V domains shown)
VH: EVQLVESGGGLVKPGGSLRLSCAASGVPFSDAWMNWVRQAPGKGLEWVGRIKSKKDGGTADYAAPVKGRFSISRDDSKKMLYLHMNSLKTEDTAVYYCTTEPSGYCSNGLCYTGNYWGQGTLVTVSS
VL: QPVLTQSSSASASLGSSVKLTCTLSSGHITYIIAWHQQQPGKAPRYLMKLEDSGSYNKGSGVPDRFSGSSSGADRYLTISNLQFEDEADYYCETWDSYTRVFGGGTKLT
As to B11, the binding result was “binds”.

B12: Fab1-6 (Fab, V domains shown)
VH: QVQLVESGAEVKQPGASVKVSCKASGYIFTSHNIHWVRKAPGQGLEWMGKINPSGGDANYAQKFQGRVVMTRDTSTNTVYVQLRSLRFEDTAVYYCARVHDFWSGYHRALDIWGQGTMVIVSS
VL: VLTQPPSASGTPGQTVTISCSGSSSNVGSHSVNWYQHLPGTAPKLLIYSNHRRPSGVPDRFSGSKSDTSASLAISGIQSEDEADYYCATWDGRLNVLFGGGTKLTVL
In general, stoichiometry N refers to the number of molecules, sites or subunits per partner or assembly. With B12, the “stoichiometry N” value was not above 24 Fabs per capsid.

B13: Fab2-7 (Fab, V domains shown)
VH: EVQLLESGGGLVQPGGSLRLSCAASGFTFSTYAMNWVRQAPGKGLEWVAGISASGGSAYYVDSVEGRFTISRDNSNNMLYLQMNSLRAEDTAVYYCAKAVYAITMVRGSITTNYYHYYAMDVWGQGTTVTV
VL: EIVLTQSPGTLSLSPGERATLSCRASQGVSSNYLAWYQQKPGQAPRLLIYDASNRATGIPDRFSGSGSGTDFTLTISRLEPEDFAVYYCQQYGSSPPLTFGGGTKVQI
Regarding B13, the “stoichiometry N” value is not above 60 Fabs per capsid.

B14: Fab1-5 (Fab, V domains shown)
VH: EVQLVESGGGLVKPGGSLRLSCAASGFMFSSYSMNWVRQAPGKGLEWVSSISRSDSYIDYADSVKGRFTISRDTAMNVLYLQMDSLRAEDTGVYYCARTHVFNMFREVINDDYYGMDVWGQGTTVTVS
VL: ALTQPASVSGSPGQSITISCTGTSSDFGIYNSVSWYQHHPGKAPKLMIFGVSNRPSGVSNRFSGSKSGNTASLSISGLQAEDEADYYCSSFTARSTVVFGGGTKLTVL
Consider B14, for which the binding result was “binds”.

B15: Fab3-6 (Fab, V domains shown)
VH: EVQLVESGGGLVQPGGSLRLSCSASGFHFSSYEMNWVRQAPGKGLEWVSYISSSGTYIDYADSVKGRFTISRDNPANSLYLQMYSLRAEDTAVYYCARRLWFGELPYSYYYGMDVWGQGTTVTVSS
VL: ALTQPASVSGSPGQSITISCTGTSSDIGGYNYVSWYQQHPGKAPELLIFDVSNRPSGVSNRFSGSKSGNTASLTISGLQAEDEADYHCCSYTRTSTVIFGGGTKLTVL
B15: the binding result is given as “binds”.

B16: Fab1-7 (Fab, V domains shown)
VH: QVQLQESGPGLVKPSETLSLTCTVSGDSIRSYYWSWIRQPPGKGLEWIGHIYYSGSTNYKPSLKSRATILVDTSKNQFSLKLRSVTAADTAVYYCAREMTGVAGRGWDHWGQGTLVTVSS
VL: ALTQPPSASGTPGQRVTISCSGSSSNIGSNTVNWYQQLPGTAPKLLIFINNQRPSGVPDRFSGSKSGTSASLAISGLQSEDEADYYCTTWDGSLNGYVFGTRTEVTVL
As to B16, the binding result was “binds”.

B17: Fab1-2 (Fab, V domains shown)
VH: EVQLVESGGGLVQPGGSLRLSCAASGFIFSNYWMSWVRQAPGKGPEWVANIKQDGSANHYVDSVKGRFTISRDNAKNSLYLQMNSLRAEDTAVYYCAREAYQDWNYDYWGQGTLVTVSS
VL: DIQMTQSPSSLSASVGDRVTVTCRASEFISRYLNWYQQKPGKAPKVLIYAASSLQSGVPSRFSGSGSGTDFTLTISSLQPEDFATYYCQQSYSTPYTFGQGTKLEIK
For the molecule B17, the binding result is reported as “binds”.

B18: Fab2-2 (Fab, V domains shown)
VH: QVQLQESGPGLVKPSVTLSLTCTVSGDSISTYYWSWVRQPPGKGLEWIGYIYYSGNTNYNPSLKSRVTMSVDTSKNQFSLKLNSVTAADTAVYYCARTHHDYGDYRPSYYFDYWGQGTLVTVSS
VL: QSALTQPASVSGSPGQSITISCTGTSSDVGAYDYVSWYQQHPGKAPKLMIYDVSNRPSSGVSNRFSGSKSGNTASLTISGLQAEDEADYYCSSYTSSSTVILGGGTKLTVL
For the molecule B18, the binding result is “binds”.

B19: Fab2-6 (Fab, V domains shown)
VH: VQLLESGGALVQPGGSLRLSCAASGFSFSNYAMSWVRQAPGKGLEWVSTISASGGTTYFADSVKGHFTISRDNSKNTLYLQMDSLRAEDTAVYYCAKDPNYYDLSGYFLGGYYFDYWGQGTLVTVSS
VL: EIVLTQSPGTLSLSPGERATLSCRASQSVRSSYLAWYQQKPGQAPRLLIYGASSRATDIPDRFSGSGSGTDFTLTISRLEPEDFAVYYCQQYGTSPAFGGGTKV
For the molecule B19, the binding result was “binds”.

B20: Fab1-4 (Fab, V domains shown)
VH: QVQVVESGAEVKKPGASVKVSCKASGYAFTTYYMHWVRQAPGQGLEWMGLINPSGDSITYAQRFQGRVTMTKDTSTSTVYMELSSLRSEDTAIYYCARDPNVAFYYGSGNYYKDNAMDVWGQGTTVTVSS
VL: not shown
In the case of B20, the binding result is recorded as “binds”.

B21: Fab2-4 (Fab, V domains shown)
VH: EVQLLESGGGLVHPGGSLRLSCAASGFPFSNFAMSWVRQAPGKGLEWVSTISGSSGSTYYADSVRGRFTISRDYSKNTVYLEMNSLRADDTAIYYCAKDRMITFGEVIVKHYDAFEIWGQGTRVAV
VL: DIQMTQSPSSLSASVGDRVTITCRASQTISTNVNWYQQKPGKAPKLLIYAASSLQSGVPSRFSGSGSGTDFTLTISSLQPEDFATFYCQQSYSAPLTFGEGTKV
As for B21, the binding result is “binds”.
